Kd data for 7 molecules are collected here from patent US8852954, “Nucleic acid molecule having binding affinity to rodent-derived IgG antibody, binder, detection reagent, and detection kit” (NEC Solution Innovators, Ltd.).

Holding throughout (settings): chain copies: 2 heavy + 2 light chains (inferred); label: 5'-biotin; stem-loop (predicted)
The target of series [1] is T1, mouse IgG3 (subtype 3 IgG antibody) (Mus musculus, UniProt P03987-2 P03987-2:1-329). Briefly: SPR; BIACORE 3000, 1:1 Langmuir. The procedure:
(§1) The analysis of binding was performed using BIACORE 3000 (produced by GE Healthcare) according to its instruction manual. Further, from the signal intensity (RU: Resonance Unit) measured using the BIACORE, the analysis was performed with 1:1 Langmuir binding model using BIAevaluation software, and the dissociation constant between each of the aptamers and each of the mouse IgG antibodies was obtained. The conditions, method, and the like of the measurement using the BIACORE were according to the following documents.
(§2) The experiment was performed in the same manner as in Example 2 except that MIG-m034, MIG-m035, MIG-m036, MIG-m037, and MIG-m040 were used as aptamers. FIGS. 8 to 10 are graphs showing the change in the signal intensity over time and respectively show the result obtained using the subtype 1 mouse IgG, the result obtained using the subtype 2a mouse IgG, and the result obtained using the subtype 3 mouse IgG. […] The results summarized in Table 3 tell that these aptamers each have high general versatility as a secondary antibody reagent and are good in the binding force. Further, since it was considered that the base pair in the stem region and U adjacent thereto are not involved in the binding of mouse IgG from Example 1, a clone having a systematic modified base was produced to obtain the Kd value. Since all the clones have substantially the same binding force to each of the mouse antibody subtypes, it was considered that the stem region was not involved in the binding with respect to all the subtypes and also that all the aptamers have the same binding mode to each of the subtypes.

The target in series [2] is T2, mouse IgG2a (subtype 2a IgG antibody) (Mus musculus, UniProt P01863 P01863:1-330). Description: SPR; BIACORE 3000, 1:1 Langmuir. The procedure:
as §1, §2

Series [3] has as its target T1, mouse IgG3 (subtype 3 IgG antibody). Description: SPR; second measurement (Example 3). The procedure:
as §1
as §2, with “Since all the clones have substantially the same binding force to each of the mouse antibody subtypes, it was considered that the stem region was not involved in the binding with respect to all the subtypes and also that all the aptamers have the same binding mode to each of the subtypes.” left out

In series [4] the target is T2, mouse IgG2a (subtype 2a IgG antibody). Briefly: SPR; second measurement (Example 3). As to the method:
as §1
as §2, with “Since all the clones have substantially the same binding force to each of the mouse antibody subtypes, it was considered that the stem region was not involved in the binding with respect to all the subtypes and also that all the aptamers have the same binding mode to each of the subtypes.” left out

In series [5] the target is T1, mouse IgG3 (subtype 3 IgG antibody). Description: SPR; BIACORE 3000, 1:1 Langmuir. The procedure:
as §1
(§3) FIGS. 5 to 7 are graphs showing the change in the signal intensity over time. […] Further, in each of the graphs, the vertical axis indicates the signal intensity (RU) measured using the BIACORE and the horizontal axis indicates the analysis time (sec). In the horizontal axis, "100 seconds" is the time when the injection of a target to be analyzed to a flow cell at the flow rate of 20 μL/min is started. The injection was maintained for 2 minutes (120 seconds), and then a running buffer was sent for 3 minutes (180 seconds) to obtain the sensorgrams showing the interaction between the aptamers and IgG. The global fitting analysis was performed and the sensorgrams were obtained under different target concentration conditions for obtaining correct Kd values.
The source holds these as a separate data set. (In general: Surface plasmon resonance follows binding to a sensor surface in real time, without labels.)

In series [6] the target is T2, mouse IgG2a (subtype 2a IgG antibody). Description: SPR; BIACORE 3000, 1:1 Langmuir. As to the method:
as §1, §3
This is another data set of the same source.

T1 sequence (P03987 other isoform, or with tags, fused parts or gaps): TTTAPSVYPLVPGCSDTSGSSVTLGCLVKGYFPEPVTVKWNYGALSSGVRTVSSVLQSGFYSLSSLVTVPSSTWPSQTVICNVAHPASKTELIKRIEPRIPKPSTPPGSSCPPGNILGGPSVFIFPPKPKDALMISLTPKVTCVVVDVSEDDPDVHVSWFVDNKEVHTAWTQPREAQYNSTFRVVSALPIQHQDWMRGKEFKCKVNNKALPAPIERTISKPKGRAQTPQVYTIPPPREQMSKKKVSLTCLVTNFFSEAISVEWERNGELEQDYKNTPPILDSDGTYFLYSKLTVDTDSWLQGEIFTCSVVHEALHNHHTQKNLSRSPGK
T2 sequence (P01863 whole entry, one chain of several): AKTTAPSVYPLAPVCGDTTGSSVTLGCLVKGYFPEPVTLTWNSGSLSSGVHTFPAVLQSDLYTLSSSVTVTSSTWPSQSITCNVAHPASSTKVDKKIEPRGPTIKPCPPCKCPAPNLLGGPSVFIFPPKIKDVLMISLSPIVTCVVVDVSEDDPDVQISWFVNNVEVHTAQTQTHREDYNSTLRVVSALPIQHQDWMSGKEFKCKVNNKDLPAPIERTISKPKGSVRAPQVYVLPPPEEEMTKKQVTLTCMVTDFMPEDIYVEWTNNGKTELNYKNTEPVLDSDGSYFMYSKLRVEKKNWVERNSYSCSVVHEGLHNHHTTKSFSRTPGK

For AAAAAGCUGAAGAGAAGACGGAAGGAGACGAAGCT (mixed, RNA with 5'-dA5 (1-5), LNA at G6 C7 G33 C34, 3'-dT35) [MIG-m035], the Kd in series [1] was 139 nM; in series [2], 1.92 nM.

As to AAAAACGCUGAAGAGAAGACGGAAGGAGACGAAGCGT (mixed, RNA with 5'-dA5 (1-5), LNA at C6 G7 C35 G36, 3'-dT37) [MIG-m034], the dissociation constant (Kd) is 8.33 nM in series [3], 1.09 nM in series [4], 8.8 nM in series [5] and 0.995 nM in series [6].

Turning to AAAAACGCUGAAGAGAAGACGGAAGGAGACGAAGCGT (mixed, RNA with 5'-dA5 (1-5), LNA at C6 G7 C35 G36, 2'-OMe U9, 3'-dT37) [MIG-m042], the dissociation constant Kd was 5.57 nM in series [5] and 0.436 nM in series [6].

Turning to AAAAAGCGCUGAAGAGAAGACGGAAGGAGACGAAGCGC (mixed, RNA with 5'-dA5 (1-5), DNA at G6 C7 G37 C38) [MIG-m036], the Kd is 13.8 nM in series [1] and 4.61 nM in series [2].

Consider AAAAAGCGCUGAAGAGAAGACGGAAGGAGACGAAGCGC (mixed, RNA with 5'-dA5 (1-5), DNA at 6-9 and 35-38) [MIG-m037], for which the values for the Kd in series [1] and in series [2] were 9.85 nM and 3.7 nM, respectively.

Take AAAAAGCGCUGAAGAGAAGACGGAAGGAGACGAAGCGC (mixed, RNA with 5'-dA5 (1-5), 2'-OMe U10) [MIG-m040]: the dissociation constant (Kd) in series [1] was 3.46 nM; in series [2], 1.23 nM.

Turning to AAAAAGCGCUGAAGAGAAGACGGAAGGAGACGAAGCGC (mixed, RNA with 5'-dA5 (1-5), DNA at 6-9 and 35-38, 2'-OMe U10) [MIG-m041], the dissociation constant Kd is 8.4 nM in series [5] and 0.959 nM in series [6].

By Kd is commonly meant the concentration at which binding is half-saturated.
